Assay results taken from patent US20190002514A1 (Dana-Farber, published 2019).
Residue numbers refer to the chain shown, from its start. Names may count otherwise. Blank lines part the entries; values can stand above or below the binder they belong to. Starred links: 1 amine or outer side, 2 acyl side, 3 side chain; linkers in the order of their positions; H or OH if unused. Positions of bridges follow the written chain, without caps; N, C: chain ends. Non-standard residues stand in square brackets, D forms with d. No end group written: not given here. *: point of attachment. Nip(3R) = O=C([C@@H]1CCCN([*:1])C1)[*:2]; S5 = C=CCCC[C@](C)(N)C(=O)O; Acryloyl = C=CC(=O)*

Assays:
BFL-1ΔC C4S/C19S [1] = molecular target: T1, BFL-1ΔC C4S/C19S (human, UniProt Q16548 1-153); assay: covalent conjugation, 10:1 peptide:protein, reducing and denaturing gel, Coomassie
T1 construct: range 1-153; Recombinant, E. coli; made by site-directed mutagenesis; also called His-BFL-1ΔC C4S/C19S; C55-only BFL-1; not shown: N-terminal His tag from the pET19b vector
T1 sequence (looked up): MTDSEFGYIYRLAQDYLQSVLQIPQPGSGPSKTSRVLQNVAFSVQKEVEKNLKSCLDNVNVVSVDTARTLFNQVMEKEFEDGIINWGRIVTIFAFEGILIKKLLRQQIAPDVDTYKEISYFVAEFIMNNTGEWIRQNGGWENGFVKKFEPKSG
Experimental: Processing for gel electrophoresis and Coomassie staining was performed as above.

BFL-1ΔC (aa 1-153) [2] = molecular target: T2, BFL-1ΔC (aa 1-153) (human, UniProt Q16548 1-153); assay: covalent conjugation assay, gel shift
T2 construct: Recombinant, expressed in E. coli; the recombinant construct's species is not restated; also called wild-type BFL-1ΔC; BFL-1 WT; not shown: N-terminal His tag and vector-derived linker of pET19b
T2 sequence: T1 sequence (looked up) with S4C, S19C

[3] = molecular target: T3, native BFL-1 (A375P melanoma cells) (human, UniProt Q16548 1-175); assay: A375P lysates with biotinylated peptides, streptavidin pull-down, BFL-1 western analysis; also biotinylation of purified mitochondria
T3 construct: also called native mitochondrial BFL-1
T3 sequence: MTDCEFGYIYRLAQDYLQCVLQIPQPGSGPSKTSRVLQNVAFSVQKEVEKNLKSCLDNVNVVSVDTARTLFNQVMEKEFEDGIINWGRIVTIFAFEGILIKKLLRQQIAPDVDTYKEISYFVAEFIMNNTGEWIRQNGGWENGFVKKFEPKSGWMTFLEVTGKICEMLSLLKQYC

HA-BFL-1ΔC C4S/C19S = molecular target: T4, HA-BFL-1ΔC C4S/C19S (human, UniProt Q16548 1-153); assay: crosslinking in lysates of transfected 293T cells, anti-HA and biotin western analysis
T4 construct: range 1-153; tested in lysates and in intact cells; also called expressed BFL-1; not shown: HA tag
T4 sequence (looked up): T1 sequence (looked up)
Experimental: For lysate experiments, cells were trypsinized 24 hours post-transfection, washed with PBS, and lysed by incubation with 1% CHAPS lysis buffer (150 mM NaCl, 50 mM Tris pH 7.4, 100 mM DTT). Protein concentration of the soluble fraction was measured using a BCA kit according to manufacturer's instructions (Thermo Scientific). […] Samples were then boiled in LDS buffer and subjected to western analysis using 1:1000 dilutions of HA (Sigma-Aldrich, #12CA5) and biotin (Abcam, #53494) antibodies. […] After 24 h, cells were trypsinized, washed with PBS, lysed in 1% CHAPS buffer, and the supernatant collected for protein concentration determination by BCA kit. […] The mixtures were then subjected to HA or FLAG (Sigma-Aldrich, F7425) immunoprecipitation, followed by western analysis using 1:1000 dilutions of HA, FLAG, biotin, and BID (Santa Cruz sc-11423) antibodies. […] Cells were harvested and lysed as above, and incubated overnight with anti-HA agarose beads (Pierce). The beads were washed 3 times with lysis buffer, eluted by boiling in LDS buffer, and subjected to western analysis with HA and biotin antibodies.

BFL-1ΔC C4S/C19S [4] = molecular target: T1, BFL-1ΔC C4S/C19S; assay: biolayer interferometry (Octet RED384): biotin-PEG-NOXA SAHB on super streptavidin tips, BFL-1ΔC construct in solution
Experimental: (§1) Excess streptavidin was quenched by incubation with 2 μg/mL biocytin. The tips were then washed with kinetics buffer and soaked in a serial dilution of BFL-1ΔC for 10 min to measure association rate, followed by a 15 min incubation in kinetics buffer to measure dissociation rate. Dissociation constants were calculated using Octet Data Analysis version 9.0.

BFL-1ΔC (aa 1-153) [5] = molecular target: T2, BFL-1ΔC (aa 1-153); assay: as above
Experimental: as §1

BFL-1 C4S/C19S/C55S = molecular target: T5, BFL-1 C4S/C19S/C55S; assay: as above
T5 construct: member of m33; m12 without cysteines; also called BFL-1ΔC C4S/C19S/C55S
T5 chain: T1 sequence (looked up) with C55S
Experimental: as §1

[6] = molecular target: T6, MCL-1 (recombinant protein of Examples 1-4) (UniProt Q07820 170-327, limits assumed); assay: fluorescence polarization: FITC-labelled SAHB, anti-apoptotic protein serially diluted from 1 µM
T6 construct: also called MCL-I
T6 sequence (Q07820 170-327 limits assumed): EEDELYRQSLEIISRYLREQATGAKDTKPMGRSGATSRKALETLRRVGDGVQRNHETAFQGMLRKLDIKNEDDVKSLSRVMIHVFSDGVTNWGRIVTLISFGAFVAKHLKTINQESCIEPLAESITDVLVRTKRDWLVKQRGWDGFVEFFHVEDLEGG
Experimental: (§2) The solution-state equilibrium binding assay was used to determine binding affinities of the stapled peptides to the anti-apoptotic proteins. Proteins were serially diluted from 1 μM, then combined with FITC-labeled SAHB and polarization measured at 5 min on a microplate reader. We then calculated dissociation constants (KD) by nonlinear regression analysis of dose-response curves.

[7] = molecular target: T7, Bfl-1 (recombinant protein of Examples 1-4) (UniProt Q16548 1-153, limits assumed); assay: as above
T7 construct: also called 9xHis-tagged Bfl-1
T7 sequence (looked up): T1 sequence (looked up) with S4C, S19C
Experimental: as §2

B1: NOXA SAHBA bearing warhead 5 (peptide)
peptide: Acryloyl-PEVESATQLR[S5]FGD[S5]LNFRQKLL
modifications: staple 11-15; also: X1 proline L or D not settled
notes: Member of the NOXA SAHBA warhead panel 1-8
binding result (BFL-1ΔC C4S/C19S [1]): binds

B6: NOXA SAHBA (peptide)
peptide: AELEVECATQLR[S5]FGD[S5]LNFRQKLL
modifications: staple 13-17; also: N-terminal PEG-biotin or FITC depending on assay
notes: Stapled NOXA BH3 (aa 19-43) with native C25; also called WT NOXA SAHB; wild-type NOXA SAHBA
Kd (BFL-1ΔC C4S/C19S [4]): 165 nM
Kd (BFL-1ΔC (aa 1-153) [5]): 122 nM
Kd (BFL-1 C4S/C19S/C55S): 118 nM
EC50 (read off the curve) [6]: ~200 nM
EC50 (read off the curve) [7]: ~100 nM

B7: NOXA SAHBA C25S (peptide)
peptide: AELEVESATQLR[S5]FGD[S5]LNFRQKLL
modifications: staple 13-17; also: N-terminal PEG-biotin or FITC depending on assay
notes: Stapled NOXA BH3 with C25S; also called NOXA C25S SAHB; C25S mutant peptide
Kd (BFL-1ΔC C4S/C19S [4]): 47.2 nM
Kd (BFL-1ΔC (aa 1-153) [5]): 46.6 nM
Kd (BFL-1 C4S/C19S/C55S): 58.2 nM

Results, then the binder that gave them:

binding result (BFL-1ΔC C4S/C19S [1]): binds
B2: BIM SAHBA bearing warhead 1 (peptide)
peptide: [(3S)‑1‑acryloylpyrrolidine‑3‑carboxylic acid]IAQELR[S5]IGD[S5]FNAYYARR
modifications: staple 8-12
notes: Member of the BIM SAHBA warhead panel 1-8

binding result (BFL-1ΔC C4S/C19S [1]): binds
B3: NOXA SAHBA bearing warhead 1 (peptide)
peptide: Acryloyl-[(3S)‑pyrrolidine‑3‑carboxylic acid]EVESATQLR[S5]FGD[S5]LNFRQKLL
modifications: staple 11-15
notes: as for B1

binding result (BFL-1ΔC (aa 1-153) [2]): binds
binding result (BFL-1ΔC C4S/C19S [1]): binds
binding result [3]: binds
binding result (HA-BFL-1ΔC C4S/C19S): binds
B4: BIM SAHBA-3 (peptide)
peptide: [Nip(3R)](Acryloyl)IAQELR[S5]IGD[S5]FNAYYARR
modifications: staple 8-12
notes: Warhead-bearing BIM SAHBA (aa 147-166); also called BIM SAHBA-WH with warhead 3; biotinylated BIM SAHBA-3

binding result (BFL-1ΔC C4S/C19S [1]): binds
B5: BIM SAHBA bearing warhead 8 (peptide)
peptide: Acryloyl-IAQELR[S5]IGD[S5]FNAYYARR
modifications: staple 7-11
notes: as for B2

binding result [6]: no binding (tested: 1e-6 M)
EC50 (read off the curve) [7]: ~200 nM
Binder: AELEVECATQLR[S5]YGD[S5]LNFRQKLL (staple 13-17; also: FITC-labelled for FP assay) [NOXA SAHBA F32Y]
